Changes are numbered by the printed parent chain.
B1: w.t.: wild type metA, homoserine O-succinyltransferase of E. coli (protein, UniProt P07623 2-309, looked up)
Homoserine …: PIRVPDELPAVNFLREENVFVMTTSRASGQEIRPLKVLILNLMPKKIETENQFLRLLSNSPLQVDIQLLRIDSRESRNTPAEHLNNFYCNFEDIQDQNFDGLIVTGAPLGLVEFNDVAYWPQIKQVLEWSKDHVTSTLFVCWAVQAALNILYGIPKQTRTEKLSGVYEHHILHPHALLTRGFDDSFLAPHSRYADFPAALIRDYTDLEILAETEEGDAYLFASKDKRIAFVTGHPEYDAQTLAQEFFRDVEAGLDPDVPYNYFPHNDPQNTPRASWRSHGNLLFTNWLNYYVYQITPYDLRHMNPTLD
B2: #11: feed-back resistant metA 11 gene product, amino acid sequence SEQ. ID. NO: 16 (protein, listed as Escherichia coli)
chain: MPIRVPDELPAVNFLREENVFVMSTSRASGQEIRPLKVLILNLMPKKIETENQFLRLLSNSPLQVDIQLLRIDSRESRNTPAEHLNNFYCNFEDIQDQNFDGLIVTGAPLGLVEFNDVAYWPQIKQVLEWSKDHVTSTLFVCWAVQAALNILYGIPKQTRTEKLSGVYEHHILHPHALLTRGFDDSFLAPHSRYADFPAALIRDYTDLEILAETEEGDAYLFASKDKRIAFVTGHPEYDAQTLAQEFFRDVEAGLDPDVPYNYFPHNDPQNTPRESWRSHGNLLFTNWLNYYVYQIAPYDLRHMYPTLD
B3: #37: feed-back resistant metA 37 gene product, amino acid sequence SEQ. ID. NO: 20 (protein, listed as Escherichia coli)
chain: B2 chain with S24T, S29P, E114G, F140S, E275A, A297T, Y305N
B4: #32: feed-back resistant metA 32 gene product, amino acid sequence SEQ. ID. NO: 18 (protein, listed as Escherichia coli)
chain: B2 chain with S24T, E275A, N290H, A297T, Y305N
B5: #10: feed-back resistant metA 10 gene product, amino acid sequence SEQ. ID. NO: 14 (protein, listed as Escherichia coli)
chain: B2 chain with S24T, K163Q, F222L, E275A, Q295R, A297T, Y305N
B6: #41: feed-back resistant metA 41 gene product, amino acid sequence SEQ. ID. NO: 22 (protein, listed as Escherichia coli)
chain: B2 chain with S24T, N79S, F140I, E275A, Y291N, A297T, M304L, Y305N

The molecules below were run on W3-BTJA strain (assay: O-succinylhomoserine production of feed back resistant metA in W3-BTJA strain, Erlenmeyer flask culture). Settings: metA plasmid in W3-BTJA strain; flask culture 64 hours, HPLC; wild type = 100%.
Type: cell-based, E. coli
Procedure: The vector was electroporated into W3-BTJA strain and production capacity of the strain was checked using Erlenmeyer flask culture as described in Example 2-1, O-succinylhomoserine production of modified strain is measured, based on 100% of O-succinylhomoserine production of wild type strain.
To measure the methionine precursor production of each strain constructed in Example 1, Erlenmeyer flask culture was performed. Each strain was cultured on LB plate media at 31° C. for overnight. A single colony was inoculated in 3 ml of LB medium, followed by culture at 31° C. for 5 hours. The culture solution was 200 fold diluted in 250 ml Erlenmeyer flask containing 25 ml of methionine precursor producing medium, followed by culture at 31° C., 200 rpm for 64 hours. HPLC was performed to compare with methionine precursor production capacity (Table 2 and Table 3).

Molecule	O-succinylhomoserine production (%)
B1	100
B2	425
B3	227
B4	396
B5	392
B6	389

Same assay, conditions: metA vector in W3-BTJA strain, flask culture

Molecule	O-succinylhomoserine production compared with wild type
B2	the most effective production
B4	the most effective production
B5	the most effective production

What follows are molecules tested on homoserine O-succinyltransferase (metA) (assay: Feed back resistance of mutant metA in the presence of 100 mM methionine). Settings: w/ 100 mM Met; control without Met = 100.
Type: biochemical, Escherichia coli
Procedure: To increase production of O-succinylhomoserine which is L-methionine precursor, overexpression of feed-back resistant metA gene encoding homoserine O-succinyltransferase was performed. PCT/US2007/009146 discloses the method for preparing feed-back resistant metA gene and activity of that.
The sequence of the feed-back resistant metA 10 gene is represented in SEQ. ID. NO: 13 and the amino acid sequence encoding by the gene is represented in SEQ. ID. NO: 14. The sequence of metA 11 gene is represented in SEQ. ID. NO: 15 and the amino acid sequence encoding by the gene is represented in SEQ. ID. NO: 16. The sequence of metA 32 gene is represented in SEQ. ID. NO: 17 and the amino acid sequence encoding by the gene is represented in SEQ. ID. NO: 18. The sequence of metA 37 gene is represented in SEQ. ID. NO: 19 and the amino acid sequence encoding by the gene is represented in SEQ. ID. NO: 20. The sequence of metA 41 gene is represented in SEQ. ID. NO: 21 and the amino acid sequence encoding by the gene is represented in SEQ. ID. NO: 22 (PCT/US2007/009146).

Molecule	% of specific activity retention [%]
B1	7.6
B2	94
B3	83
B4	79
B5	97
B6	74
